According to patent US20240139251A1 (CYTOARM, published 2024):

Key:
[1] = target: T1, prostate specific membrane antigen (PSMA) on LNCaP cells (human, UniProt Q04609 1-750); experiment: cell-based or functional assay
[2] = target: T1, prostate specific membrane antigen …; experiment: cell-based or functional assay; remark: listed apart in the source

Binder	Cytotoxic effect of BsAb T cells on LNCaP cells, Effect cell/Target cell 3:1 [1]	Cytotoxic effect of BsAb T cells on LNCaP cells, Effect cell/Target cell 5:1 [1]	Cytotoxic effect of BsAb T cells on LNCaP cells, Effect cell/Target cell 10:1 [1]	Cell killing of LNCaP cells by T cells of Example 2 further modified with BsAb, E/T ratio 10:1 [2]	Cytotoxicity on LNCaP cells of T cells differentiated by BsAb, E/T ratio 5:1 [2]	Cytotoxicity on LNCaP cells of T cells differentiated by BsAb, E/T ratio 10:1 [2]	Cytotoxicity on LNCaP cells of T cells differentiated by and further modified with BsAb, E/T ratio 5:1 [2]	Cytotoxicity on LNCaP cells of T cells differentiated by and further modified with BsAb, E/T ratio 10:1 [2]	Cell killing of LNCaP cells by murine OKT3 T cells modified with BsAb, E/T ratio 10:1 [2]
anti-CD3 Fab/anti-PSMA scFv BsAb (bispecific antibody, not shown: small tags and cut ends) light: not shown heavy (part 1 of 2): not shown heavy (part 2 of 2): GGGSGGGEVQLVQSGAEVKKPGASVKISCKTSGYTFTEYTIHWVKQASGKGLEWIGNINPNNGGTTYNQKFEDRATLTVDKSTSTAYMELSSLRSEDTAVYYCAAGWNFDYWGQGTTVTVSSAGGGGSGGGGSGGGGSDIVMTQSPSSLSASVGDRVTITCKASQDVGTAVDWYQQKPGKAPKLLIYWASTRHTGVPDRFTGSGSGTDFTLTISSLQPEDFADYFCQQYNSYPLTFGGGTKLEIKRHHHHHH	30.3%	62.6%	82.2%	> 90%	~51.3%	~61%	~78.2%	~81.8%	
anti-PSMA scFv/anti-CD3 scFv BsAb (bispecific antibody, not shown: small tags and cut ends) chain (part 1 of 2): DIVMTQSPSSLSASVGDRVTITCKASQDVGTAVDWYQQKPGKAPKLLIYWASTRHTGVPDRFTGSGSGTDFTLTISSLQPEDFADYFCQQYNSYPLTFGGGTKLEIKRGGGGSGGGGSGGGGSEVQLVQSGAEVKKPGASVKISCKTSGYTFTEYTIHWVKQASGKGLEWIGNINPNNGGTTYNQKFEDRATLTVDKSTSTAYMELSSLRSEDTAVYYCAAGWNFDYWGQGTTVTVSSA chain (part 2 of 2): not shown	53.8%	83.4%	97.6%	> 90%					
anti-PSMA Fab/anti-CD3 scFv BsAb (bispecific antibody, not shown: small tags and cut ends) light: DIVMTQSPSSLSASVGDRVTITCKASQDVGTAVDWYQQKPGKAPKLLIYWASTRHTGVPDRFTGSGSGTDFTLTISSLQPEDFADYFCQQYNSYPLTFGGGTKLEIKRTVAAPSVFIFPPSDEQLKSGTASVVCLLNNFYPREAKVQWKVDNALQSGNSQESVTEQDSKDSTYSLSSTLTLSKADYEKHKLYACEVTHQGLSSPVTKSFNRGEC heavy (part 1 of 2): EVQLVQSGAEVKKPGASVKISCKTSGYTFTEYTIHWVKQASGKGLEWIGNINPNNGGTTYNQKFEDRATLTVDKSTSTAYMELSSLRSEDTAVYYCAAGWNFDYWGQGTTVTVSSASTKGPSVFPLAPSSKSTSGGTAALGCLVKDYFPEPVTVSWNSGALTSGVHTFPAVLQSSGLYSLSSVVTVPSSSLGTQTYICNVNHKPSNTKVDKRVEPKSCDK heavy (part 2 of 2): not shown	64.8%	87%	97.3%	> 90%					~100%
anti-CD3 knob/anti-PSMA hole BsAb (bispecific antibody) light 1: not shown heavy 1: not shown light 2: RIVMTQSPSSLSASVGDRVTITCKASQDVGTAVDWYQDKPGKAPKLLIYWASTRHTGVPDRFTGSGSGTDFTLTISSLQPEDFADYFCQQYNSYPLTFGGGTKLEIKRTVAAPSVFIFPPSDEQLKSGTASVVCYLNNFYPREAKVQWKVDNALQSGNSQESVTEQDSKDSTYSLWSTLTLSKADYEKHKLYACEVTHQGLSSPVTKSFNRGECGGGSYPYDVPDYA heavy 2: not shown	43.1%	58.6%	70.4%	> 90%					
